Holding throughout (assay): purified protein, by the assay type
Conditions in all cases: other: pH 7.4, 20 μM (S)-adenosyl methionine

Substrate in data set [1]: c1cc(Cc2cnc[nH]2)ccn1
Substrate in data set [2]: NCCc1c[nH]cn1
Substrate in data set [3]: C[C@@H](N)Cc1c[nH]cn1

What is called Vmax is the rate approached at saturating substrate. As a reminder, the Km is the concentration of substrate that gives half-maximal velocity.

“And” between values parts separate entries of the source, which are not always exact repeats. Equal entries are not always repeated.

B1: human HMT (Homo sapiens) (protein)
chain: MASSMRSLFSDHGKYVESFRRFLNHSTEHQCMQEFMDKKLPGIIGRIGDTKSEIKILSIGGGAGEIDLQILSKVQAQYPGVCINNEVVEPSAEQIAKYKELVAKTSNLENVKFAWHKETSSEYQSRMLEKKELQKWDFIHMIQMLYYVKDIPATLKFFHSLLGTNAKMLIIVVSGSSGWDKLWKKYGSRFPQDDLCQYITSDDLTQMLDNLGLKYECYDLLSTMDISDCFIDGNENGDLLWDFLTETCNFNATAPPDLRAELGKDLQEPEFSAKKEGKVLFNNTLSFIVIEA
With B1, in data set [1], the Vmax was 0.004 µM/min and 0.003 µM/min; the Vmax/Km was 0.0011 min⁻¹ and 0.0012 min⁻¹. Moreover, in data set [2], the Km worked out at 3.93 µM, the Vmax came out at 0.19 µM/min and the Vmax/Km was found to be 0.048 min⁻¹. Also, in data set [3], the Km amounted to 16.26 µM, the Vmax amounted to 0.56 µM/min and the Vmax/Km amounted to 0.034 min⁻¹.

For the origin of these results see US20120129892A1, “NOVEL PHARMACEUTICALLY ACCEPTABLE SALTS OF 4-(1H-IMIDAZOL-4-[…])PYRIDINE AND THEIR THERAPEUTICAL USES” (BIOPROJET, priority 2009, published 2012).
